Experimental data published in US20250249113.

What was measured:
[1] = test system: Compound 6: DM1-Mal-Phe-Cit-Lys(PEG4-Mal-Cys-Ac)-Phe-OH
[2] = test system: Compound 5: DM1-Mal-Phe-Lys-Lys(PEG4-Mal-Cys-Ac)-Phe-OH
[3] = test system: Compound 8: AF-Cit-Lys(PEG4-Mal-Cys-Ac)-Phe-OH
[4] = test system: Compound 11: DM1-Mcc-Phe-Cit-Lys(PEG5-Ma-Cys-Ac)-Tyr-OH
[5] = test system: Compound 1: AF-Arg-Lys(PEG4-Mal-Cys-Ac)-Phe-OH
[6] = test system: Compound 3: AF-Arg-Phe-Lys(PEG4-Mal-Cys-Ac)-OH
[7] = test system: Compound 7: DM1-Mal-Phe-Cit-Phe-Lys(PEG4-Mal-Cys-Ac)-OH
[8] = test system: Compound 12: DM1-Mcc-Cit-Lys(PEG5-Ma-Cys-Ac)-Tyr-OH

Substance: recombinant human Cathepsin B
- Ratio (T1/2 Compound/T1/2 Reference), Cat B-induced cleavage [1]: 0.02
- T1/2 Compound (min), Cat B-induced cleavage [1]: 0.3 min
- Ratio (T1/2 Compound/T1/2 Reference), Cat B-induced cleavage [2]: 0.05
- T1/2 Compound (min), Cat B-induced cleavage [2]: 0.6 min
- Ratio (T1/2 Compound/T1/2 Reference), Cat B-induced cleavage [3]: 0.09
- T1/2 Compound (min), Cat B-induced cleavage [3]: 1.1 min
- Ratio (T1/2 Compound/T1/2 Reference), Cat B-induced cleavage [4]: 0.005
- T1/2 Compound (min), Cat B-induced cleavage [4]: 0.06 min
- T1/2 of cleavage by exo-Cat B [4]: compounds 11 and 12 are spontaneously cleaved by exo-Cat B (T1/2≤1 min)
- Ratio (T1/2 Compound/T1/2 Reference), Cat B-induced cleavage [5]: 0.12
- T1/2 Compound (min), Cat B-induced cleavage [5]: 1.5 min
- Ratio (T1/2 Compound/T1/2 Reference), Cat B-induced cleavage [6]: 0.11
- T1/2 Compound (min), Cat B-induced cleavage [6]: 1.4 min
- Ratio (T1/2 Compound/T1/2 Reference), Cat B-induced cleavage [7]: 0.09
- T1/2 Compound (min), Cat B-induced cleavage [7]: 1.2 min
- Ratio (T1/2 Compound/T1/2 Reference), Cat B-induced cleavage [8]: 4e-05
- T1/2 Compound (min), Cat B-induced cleavage [8]: 0.0004 min
- T1/2 of cleavage by exo-Cat B [8]: compounds 11 and 12 are spontaneously cleaved by exo-Cat B (T1/2≤1 min)
